# Measurements taken from patent US20240132587A1 (published 2024).
# T1: mouse CLDN18.2 (mouse, UniProt P56857 1-264)
# T1 chain: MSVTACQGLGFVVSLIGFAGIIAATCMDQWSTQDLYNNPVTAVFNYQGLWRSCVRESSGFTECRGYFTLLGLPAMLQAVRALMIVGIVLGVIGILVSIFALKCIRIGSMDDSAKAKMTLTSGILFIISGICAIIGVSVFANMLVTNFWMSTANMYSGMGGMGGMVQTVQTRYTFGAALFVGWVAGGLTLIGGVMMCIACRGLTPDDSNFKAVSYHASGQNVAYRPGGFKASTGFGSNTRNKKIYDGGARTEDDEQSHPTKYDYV
# T2: rat CLDN18.2 (rat, UniProt Q5I0E5 1-261)
# T2 chain: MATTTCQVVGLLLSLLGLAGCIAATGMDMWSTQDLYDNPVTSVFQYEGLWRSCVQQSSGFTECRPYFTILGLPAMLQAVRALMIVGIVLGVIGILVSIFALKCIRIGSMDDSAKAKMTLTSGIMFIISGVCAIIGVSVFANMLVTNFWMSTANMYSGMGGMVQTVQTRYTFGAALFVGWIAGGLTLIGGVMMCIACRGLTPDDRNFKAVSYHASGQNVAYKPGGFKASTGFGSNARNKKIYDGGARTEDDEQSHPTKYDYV
# Legend:
# Test in all cases: flow cytometry, HEK293 cells
# mouse CLDN18.2 = molecular target: T1, mouse CLDN18.2
# rat CLDN18.2 = molecular target: T2, rat CLDN18.2
# human CLDN18.2 = human CLDN18.2 (human, UniProt P56856 1-261)
# human CLDN18.2, sequence (P56856 other isoform, or with tags, fused parts or gaps): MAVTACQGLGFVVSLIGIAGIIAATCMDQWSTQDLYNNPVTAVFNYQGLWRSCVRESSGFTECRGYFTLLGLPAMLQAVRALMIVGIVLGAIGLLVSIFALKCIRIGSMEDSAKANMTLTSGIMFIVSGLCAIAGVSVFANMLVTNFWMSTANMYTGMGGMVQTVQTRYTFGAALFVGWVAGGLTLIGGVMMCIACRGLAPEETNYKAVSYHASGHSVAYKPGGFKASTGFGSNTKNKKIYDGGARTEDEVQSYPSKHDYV
Binder,EC50 (mouse CLDN18.2) [nM],EC50 (rat CLDN18.2) [nM],EC50 (human CLDN18.2) [nM]
"008LYG_D08 IgG1 (antibody, V domains shown) VH: QVQLVQSGAEVKKPGSSVKVSCKASGGTFSSYAISWVRQAPGQGLEWMGGIIPIFGTANYAQKFQGRVTITADESTSTAYMELSSLRSEDTAVYYCARGYQGMGVFDPWGQGTLVTVSS VL: not shown",81.3,99.1,92.6
"ZP1I18_B08 IgG1 (antibody, V domains shown) VH: QVQLVQSGAEVKKPGSSVKVSCKASGGTFSSYAISWVRQAPGQGLEWMGGIIPIFGTANYAQKFQGRVTITADESTSTAYMELSSLRSEDTAVYYCARGFIRYGVFDYWGQGTLVTVSS VL: not shown",–,10.5,13.1
"008M0G_G03 IgG1 (antibody, V domains shown) VH: QVQLVQSGAEVKKPGSSVKVSCKASGGTFSSYAISWVRQAPGQGLEWMGGIIPIFGTANYAQKFQGRVTITADESTSTAYMELSSLRSEDTAVYYCARGYPRYGVFDYWGQGTLVTVSS VL: not shown",–,11.1,8.55
"ZP1I16_D05 IgG1 (antibody, V domains shown) VH: QVQLVQSGAEVKKPGSSVKVSCKASGGTFSSYAISWVRQAPGQGLEWMGGIIPIFGTANYAQKFQGRVTITADESTSTAYMELSSLRSEDTAVYYCARGFIRYGVFDYWGQGTLVTVSS VL: not shown",–,11.8,7.89
"008LY1_D04 IgG1 (antibody, V domains shown) VH: QVQLVQSGAEVKKPGSSVKVSCKASGGTFSSYAISWVRQAPGQGLEWMGGIIPIFGTANYAQKFQGRVTITADESTSTAYMELSSLRSEDTAVYYCARGYVQYGYFDYWGQGTLVTVSS VL: not shown",–,–,9.07
